Source: PMC4275594 (Nature Communications, 2014)

B1: IL-18Rβ Y214A, C-terminal 6xHis tagged extracellular domains (residues 15-356), for SPR (domain or fragment, human, UniProt O95256-1 15-356, looked up)
chain: ERIKGFNISGCSTKKLLWTYSTRSEEEFVLFCDLPEPQKSHFCHRNRLSPKQVPEHLPFMGSNDLSDVQWYQQPSNGDPLEDIRKSYPHIIQDKCTLHFLTPGVNNSGSYICRPKMIKSPYDVACCVKMILEVKPQTNASCEYSASHKQDLLLGSTGSISCPSLSCQSDAQSPAVTWYKNGKLLSVERSNRIVVDEVYDAHQGTYVCDYTQSDTVSSWTVRAVVQVRTIVGDTKLKPDILDPVEDTLEVELGKPLTISCKARFGFERVFNPVIKWYIKDSDLEWEVSVPEAKSIKSTLKDEIIERNIILEKVTQRDLRRKFVCFVQNSIGNTTQSVQLKEKR
notes: human IL-18 receptor β, extracellular domains, residues 15-356 of NM_003853; source: silkworm (B. mori) larvae, BmNPV bacmid, haemolymph, purified as from Sf9; not shown: 6xHis, C-terminal, kept
B2: IL-18Rβ K313A, C-terminal 6xHis tagged extracellular domains (residues 15-356), for SPR (domain or fragment, human, UniProt O95256-1 15-356, looked up)
chain: ERIKGFNISGCSTKKLLWTYSTRSEEEFVLFCDLPEPQKSHFCHRNRLSPKQVPEHLPFMGSNDLSDVQWYQQPSNGDPLEDIRKSYPHIIQDKCTLHFLTPGVNNSGSYICRPKMIKSPYDVACCVKMILEVKPQTNASCEYSASHKQDLLLGSTGSISCPSLSCQSDAQSPAVTWYKNGKLLSVERSNRIVVDEVYDYHQGTYVCDYTQSDTVSSWTVRAVVQVRTIVGDTKLKPDILDPVEDTLEVELGKPLTISCKARFGFERVFNPVIKWYIKDSDLEWEVSVPEAKSIKSTLADEIIERNIILEKVTQRDLRRKFVCFVQNSIGNTTQSVQLKEKR
notes: human IL-18 receptor β, extracellular domains, residues 15-356 of NM_003853; In the luciferase reporter assay the same mutation stood in full-length IL-18Rβ (pcDNA3.1+) expressed in HEK293 cells; source: silkworm (B. mori) larvae, BmNPV bacmid, haemolymph, purified as from Sf9; not shown: 6xHis, C-terminal, kept
B3: IL-18Rβ L167A, C-terminal 6xHis tagged extracellular domains (residues 15-356), for SPR (domain or fragment, human, UniProt O95256-1 15-356, looked up)
chain: ERIKGFNISGCSTKKLLWTYSTRSEEEFVLFCDLPEPQKSHFCHRNRLSPKQVPEHLPFMGSNDLSDVQWYQQPSNGDPLEDIRKSYPHIIQDKCTLHFLTPGVNNSGSYICRPKMIKSPYDVACCVKMILEVKPQTNASCEYSASHKQDLLAGSTGSISCPSLSCQSDAQSPAVTWYKNGKLLSVERSNRIVVDEVYDYHQGTYVCDYTQSDTVSSWTVRAVVQVRTIVGDTKLKPDILDPVEDTLEVELGKPLTISCKARFGFERVFNPVIKWYIKDSDLEWEVSVPEAKSIKSTLKDEIIERNIILEKVTQRDLRRKFVCFVQNSIGNTTQSVQLKEKR
notes: as for B1
B4: IL-18Rβ E210A, C-terminal 6xHis tagged extracellular domains (residues 15-356), for SPR (domain or fragment, human, UniProt O95256-1 15-356, looked up)
chain: ERIKGFNISGCSTKKLLWTYSTRSEEEFVLFCDLPEPQKSHFCHRNRLSPKQVPEHLPFMGSNDLSDVQWYQQPSNGDPLEDIRKSYPHIIQDKCTLHFLTPGVNNSGSYICRPKMIKSPYDVACCVKMILEVKPQTNASCEYSASHKQDLLLGSTGSISCPSLSCQSDAQSPAVTWYKNGKLLSVERSNRIVVDAVYDYHQGTYVCDYTQSDTVSSWTVRAVVQVRTIVGDTKLKPDILDPVEDTLEVELGKPLTISCKARFGFERVFNPVIKWYIKDSDLEWEVSVPEAKSIKSTLKDEIIERNIILEKVTQRDLRRKFVCFVQNSIGNTTQSVQLKEKR
notes: as for B2
B5: human IL-18 receptor beta extracellular domain (residues 15-356), C-terminal 6xHis, E210A (receptor, UniProt O95256-1 15-356, looked up)
chain: ERIKGFNISGCSTKKLLWTYSTRSEEEFVLFCDLPEPQKSHFCHRNRLSPKQVPEHLPFMGSNDLSDVQWYQQPSNGDPLEDIRKSYPHIIQDKCTLHFLTPGVNNSGSYICRPKMIKSPYDVACCVKMILEVKPQTNASCEYSASHKQDLLLGSTGSISCPSLSCQSDAQSPAVTWYKNGKLLSVERSNRIVVDAVYDYHQGTYVCDYTQSDTVSSWTVRAVVQVRTIVGDTKLKPDILDPVEDTLEVELGKPLTISCKARFGFERVFNPVIKWYIKDSDLEWEVSVPEAKSIKSTLKDEIIERNIILEKVTQRDLRRKFVCFVQNSIGNTTQSVQLKEKR
notes: IL-18 receptor beta, human, extracellular domains, residues 15-356 of NM_003853; also called IL-18Rβ E210A; source: silkworm (B. mori) larvae, BmNPV bacmid, haemolymph, purified (ion exchange, Ni-NTA, gel filtration); not shown: 6xHis, C-terminal, kept
B6: human IL-18 receptor beta extracellular domain (residues 15-356), C-terminal 6xHis, Y214A (receptor, UniProt O95256-1 15-356, looked up)
chain: ERIKGFNISGCSTKKLLWTYSTRSEEEFVLFCDLPEPQKSHFCHRNRLSPKQVPEHLPFMGSNDLSDVQWYQQPSNGDPLEDIRKSYPHIIQDKCTLHFLTPGVNNSGSYICRPKMIKSPYDVACCVKMILEVKPQTNASCEYSASHKQDLLLGSTGSISCPSLSCQSDAQSPAVTWYKNGKLLSVERSNRIVVDEVYDAHQGTYVCDYTQSDTVSSWTVRAVVQVRTIVGDTKLKPDILDPVEDTLEVELGKPLTISCKARFGFERVFNPVIKWYIKDSDLEWEVSVPEAKSIKSTLKDEIIERNIILEKVTQRDLRRKFVCFVQNSIGNTTQSVQLKEKR
notes: IL-18 receptor beta, human, extracellular domains, residues 15-356 of NM_003853; also called IL-18Rβ Y214A; source: silkworm (B. mori) larvae, BmNPV bacmid, haemolymph, purified (ion exchange, Ni-NTA, gel filtration); not shown: 6xHis, C-terminal, kept
B7: human IL-18 receptor beta extracellular domain (residues 15-356), C-terminal 6xHis, K313A (receptor, UniProt O95256-1 15-356, looked up)
chain: ERIKGFNISGCSTKKLLWTYSTRSEEEFVLFCDLPEPQKSHFCHRNRLSPKQVPEHLPFMGSNDLSDVQWYQQPSNGDPLEDIRKSYPHIIQDKCTLHFLTPGVNNSGSYICRPKMIKSPYDVACCVKMILEVKPQTNASCEYSASHKQDLLLGSTGSISCPSLSCQSDAQSPAVTWYKNGKLLSVERSNRIVVDEVYDYHQGTYVCDYTQSDTVSSWTVRAVVQVRTIVGDTKLKPDILDPVEDTLEVELGKPLTISCKARFGFERVFNPVIKWYIKDSDLEWEVSVPEAKSIKSTLADEIIERNIILEKVTQRDLRRKFVCFVQNSIGNTTQSVQLKEKR
notes: IL-18 receptor beta, human, extracellular domains, residues 15-356 of NM_003853; also called IL-18Rβ K313A; source: silkworm (B. mori) larvae, BmNPV bacmid, haemolymph, purified (ion exchange, Ni-NTA, gel filtration); not shown: 6xHis, C-terminal, kept
B8: human IL-18 receptor beta extracellular domain (residues 15-356), C-terminal 6xHis, S169A-T170A (receptor, UniProt O95256-1 15-356, looked up)
chain: ERIKGFNISGCSTKKLLWTYSTRSEEEFVLFCDLPEPQKSHFCHRNRLSPKQVPEHLPFMGSNDLSDVQWYQQPSNGDPLEDIRKSYPHIIQDKCTLHFLTPGVNNSGSYICRPKMIKSPYDVACCVKMILEVKPQTNASCEYSASHKQDLLLGAAGSISCPSLSCQSDAQSPAVTWYKNGKLLSVERSNRIVVDEVYDYHQGTYVCDYTQSDTVSSWTVRAVVQVRTIVGDTKLKPDILDPVEDTLEVELGKPLTISCKARFGFERVFNPVIKWYIKDSDLEWEVSVPEAKSIKSTLKDEIIERNIILEKVTQRDLRRKFVCFVQNSIGNTTQSVQLKEKR
notes: IL-18 receptor beta, human, extracellular domains, residues 15-356 of NM_003853; also called IL-18RβS169A-T170A; source: silkworm (B. mori) larvae, BmNPV bacmid, haemolymph, purified (ion exchange, Ni-NTA, gel filtration); not shown: 6xHis, C-terminal, kept
B9: human IL-18 receptor beta extracellular domain (residues 15-356), C-terminal 6xHis, L167A (receptor, UniProt O95256-1 15-356, looked up)
chain: ERIKGFNISGCSTKKLLWTYSTRSEEEFVLFCDLPEPQKSHFCHRNRLSPKQVPEHLPFMGSNDLSDVQWYQQPSNGDPLEDIRKSYPHIIQDKCTLHFLTPGVNNSGSYICRPKMIKSPYDVACCVKMILEVKPQTNASCEYSASHKQDLLAGSTGSISCPSLSCQSDAQSPAVTWYKNGKLLSVERSNRIVVDEVYDYHQGTYVCDYTQSDTVSSWTVRAVVQVRTIVGDTKLKPDILDPVEDTLEVELGKPLTISCKARFGFERVFNPVIKWYIKDSDLEWEVSVPEAKSIKSTLKDEIIERNIILEKVTQRDLRRKFVCFVQNSIGNTTQSVQLKEKR
notes: IL-18 receptor beta, human, extracellular domains, residues 15-356 of NM_003853; also called IL-18Rβ L167A; source: silkworm (B. mori) larvae, BmNPV bacmid, haemolymph, purified (ion exchange, Ni-NTA, gel filtration); not shown: 6xHis, C-terminal, kept

Target: C-terminal 6xHis tagged IL-18Rβ extracellular domains (residues 15-356), for SPR (human) (UniProt O95256)
Test: SPR; BIAcore 3000, 25 °C, C-terminal 6xHis IL-18Rβ immobilised (~100 RU) on an NTA sensor chip, un-tagged IL-18Rα saturated with 500 nM IL-18 as analyte in HBS-P
Conditions: not given

Molecule	Kd
IL-18 D110A/IL-18Rα WT complex (SPR analyte) (from UniProt Q13478 20-329)	56 nM
IL-18 G145A/IL-18Rα WT complex (SPR analyte) (from UniProt Q13478 20-329)	28 nM
IL-18 R147A/IL-18Rα WT complex (SPR analyte) (from UniProt Q13478 20-329)	57 nM

Target: human IL-18 receptor alpha extracellular domain (residues 20-329), C-terminal 6xHis, wild type, from silkworm (human) (UniProt Q13478)
Test: SPR; BIAcore 3000, 25 °C; C-terminal 6xHis IL-18Rα (wild type or mutant) immobilised at about 200 RU on a Ni-NTA sensor chip; IL-18 (wild type or mutant) injected as analyte in HBS-P (10 mM HEPES-Na pH 7.4, 150 mM NaCl, 0.01% P-20), 30 µl/min, 180 s association, 360 s dissociation; triplicate
Conditions: not given

Chain of human IL-18 receptor alpha extracellular domain (residues 20-329), C-terminal 6xHis, wild type, from silkworm (human) (Q13478 20-329): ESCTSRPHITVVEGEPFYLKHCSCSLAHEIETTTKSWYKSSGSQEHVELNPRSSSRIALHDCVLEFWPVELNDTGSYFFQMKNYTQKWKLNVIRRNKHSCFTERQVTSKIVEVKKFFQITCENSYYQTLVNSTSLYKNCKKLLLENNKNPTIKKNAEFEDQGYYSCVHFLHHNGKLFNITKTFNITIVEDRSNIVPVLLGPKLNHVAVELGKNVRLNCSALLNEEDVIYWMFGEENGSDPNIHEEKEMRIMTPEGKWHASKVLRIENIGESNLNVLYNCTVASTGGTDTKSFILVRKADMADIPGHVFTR

Molecule	Kd	kon
human interleukin-18, mature, D110A (ligand)	23 nM	106000 M⁻¹ s⁻¹
human interleukin-18, mature, G108A (ligand)	184 nM	52000 M⁻¹ s⁻¹
human interleukin-18, mature, G145A (ligand)	57 nM	59000 M⁻¹ s⁻¹
human interleukin-18, mature, H109A (ligand)	48 nM	62000 M⁻¹ s⁻¹
human interleukin-18, mature, K79A (ligand)	55 nM	76000 M⁻¹ s⁻¹
human interleukin-18, mature, K112A (ligand)	51 nM	64000 M⁻¹ s⁻¹
human interleukin-18, mature, M150A (ligand)	59 nM	57000 M⁻¹ s⁻¹
human interleukin-18, mature, R147A (ligand)	67 nM	68000 M⁻¹ s⁻¹

Target: human IL-18 receptor beta extracellular domain (residues 15-356), C-terminal 6xHis, wild type, from silkworm (human) (UniProt O95256)
Test: SPR; BIAcore 3000, 25 °C; C-terminal 6xHis IL-18Rβ (wild type or mutant) immobilised at about 100 RU on a Ni-NTA sensor chip; un-tagged IL-18Rα saturated with 500 nM IL-18 (preformed binary complex) injected as analyte in HBS-P; triplicate
Conditions: not given

Molecule	Kd	kon
preformed binary complex of IL-18 K79A and un-tagged IL-18Rα wild type extracellular domain (from UniProt Q13478 20-329)	13 nM	13000 M⁻¹ s⁻¹
preformed binary complex of IL-18 K84A and un-tagged IL-18Rα wild type extracellular domain (from UniProt Q13478 20-329)	18 nM	10000 M⁻¹ s⁻¹
preformed binary complex of IL-18 R147A and un-tagged IL-18Rα wild type extracellular domain (from UniProt Q13478 20-329)	–	69000 M⁻¹ s⁻¹

Target: T1, IL-18 WT/IL-18Rα WT complex (SPR analyte) (human, UniProt Q14116 37-193; Q13478 20-329)
T1 construct: human interleukin-18, mature IL-18 (residues 1-157); numbers count on: the mature protein; human IL-18 receptor α, extracellular domains, residues 20-329 of NM_003855, printed as un-tagged; also called IL-18/IL-18Rα binary complex; IL-18 WT(control); source: IL-18: E. coli BL21(DE3), purified; IL-18Rα: silkworm larvae haemolymph, purified; un-tagged IL-18Rα saturated with 500 nM IL-18
Test: SPR; BIAcore 3000, 25 °C, C-terminal 6xHis IL-18Rβ immobilised (~100 RU) on an NTA sensor chip, un-tagged IL-18Rα saturated with 500 nM IL-18 as analyte in HBS-P
Conditions: both partners purified

Molecule	Kd
B1	50 nM
B2	109 nM
B3	33 nM
B4	327 nM

Target: T2, preformed binary complex of IL-18 wild type and un-tagged IL-18Rα wild type extracellular domain (human, UniProt Q14116 37-193; Q13478 20-329)
T2 construct: interleukin-18, human, mature IL-18 (residues 1-157); numbers count on: the mature protein; IL-18 receptor alpha, human, extracellular domains, residues 20-329 of NM_003855; also called IL-18 WT/IL-18Rα WT complex; IL-18/IL-18Rα; source: IL-18: E. coli BL21(DE3), purified; IL-18Rα: silkworm larvae haemolymph, purified; un-tagged IL-18Rα saturated with 500 nM IL-18
Test: SPR; BIAcore 3000, 25 °C; C-terminal 6xHis IL-18Rβ (wild type or mutant) immobilised at about 100 RU on a Ni-NTA sensor chip; un-tagged IL-18Rα saturated with 500 nM IL-18 (preformed binary complex) injected as analyte in HBS-P; triplicate
Conditions: both partners purified

Molecule	kon	Kd
B5	71000 M⁻¹ s⁻¹	–
B6	97000 M⁻¹ s⁻¹	–
B7	103000 M⁻¹ s⁻¹	–
B8	68000 M⁻¹ s⁻¹	77 nM
B9	76000 M⁻¹ s⁻¹	–
